To fix the notation:
T1: human neuropeptide Y2 receptor (human, UniProt P49146 1-381)
T1 sequence (looked up): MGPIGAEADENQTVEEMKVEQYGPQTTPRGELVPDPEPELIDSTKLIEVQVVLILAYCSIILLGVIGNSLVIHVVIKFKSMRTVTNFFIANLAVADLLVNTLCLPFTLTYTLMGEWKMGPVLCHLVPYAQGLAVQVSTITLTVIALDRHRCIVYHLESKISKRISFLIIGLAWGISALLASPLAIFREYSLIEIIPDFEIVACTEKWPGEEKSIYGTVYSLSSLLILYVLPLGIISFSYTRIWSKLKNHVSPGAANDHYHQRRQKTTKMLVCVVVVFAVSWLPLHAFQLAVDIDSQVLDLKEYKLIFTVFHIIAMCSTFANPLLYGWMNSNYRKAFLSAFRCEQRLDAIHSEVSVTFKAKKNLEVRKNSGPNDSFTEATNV

T2: human GIP receptor (human, UniProt P48546 22-466)
T2 sequence (looked up): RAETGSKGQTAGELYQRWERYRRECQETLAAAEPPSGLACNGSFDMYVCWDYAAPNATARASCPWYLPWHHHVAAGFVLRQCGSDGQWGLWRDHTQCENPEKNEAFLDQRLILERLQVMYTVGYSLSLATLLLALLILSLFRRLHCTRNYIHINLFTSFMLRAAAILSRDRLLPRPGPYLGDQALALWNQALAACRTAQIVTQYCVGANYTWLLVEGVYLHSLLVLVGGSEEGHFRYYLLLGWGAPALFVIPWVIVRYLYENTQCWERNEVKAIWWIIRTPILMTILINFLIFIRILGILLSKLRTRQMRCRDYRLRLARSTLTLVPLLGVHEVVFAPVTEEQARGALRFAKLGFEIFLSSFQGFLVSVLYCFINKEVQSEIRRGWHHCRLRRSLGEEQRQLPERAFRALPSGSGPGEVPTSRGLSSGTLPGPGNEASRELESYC

B1: Compound 12 (peptide)
peptide: Y[Aib]EGTFTSDYSI[Aib]LEKQAQ[Aib]AFVRHLINK([γGlu-γGlu-γGlu-γGlu-γGlu-γGlu-C18 diacid])LTRQRY-NH2
B2: Compound 56 (peptide)
peptide: Y[Aib]EGTFTSDYSI[Aib]LEKQAQ[Aib]EFVRHLINK([γGlu-γGlu-γGlu-γGlu-γGlu-γGlu-C18 diacid])[Aib]TRQRY-NH2
B3: Compound 16 (peptide)
peptide: Y[Aib]EGTFTSDYSI[Aib]LDKQAQ[Aib]AFVRHLINK([εLys-γGlu-γGlu-γGlu-γGlu-γGlu-γGlu-γGlu-C20 diacid])[Aib]TRQ[dOR]Y-NH2
modifications: reading uncertain
B4: Compound 21 (peptide)
peptide: YXEGTFTSDLSIXLEKQAQXAFIRHLINKXTRQRY
modifications: Aib at 2, 13, 20, 30; Lys29 epsilon-amino acylated with C20DA-gGlu-gGlu-gGlu-gGlu-gGlu-gGlu-eLys; C-terminal amide
B5: Compound 68 (peptide)
peptide: B4 peptide with L10Y, I23V, N28A
modifications: Aib at 2, 13, 20, 30; Lys29 epsilon-amino acylated with C18DA-gGlu-gGlu-gGlu-gGlu-gGlu-gGlu-eLys; C-terminal amide
B6: Compound 41 (peptide)
peptide: B4 peptide with L10Y, I23V, X30I
modifications: Aib at 2, 13, 20; Lys29 epsilon-amino acylated with C18DA-gGlu-gGlu-gGlu-gGlu-gGlu; C-terminal amide
B7: Compound 27 (peptide)
peptide: B4 peptide with L10Y, I23V, X30L
modifications: Aib at 2, 13, 20; Lys29 epsilon-amino acylated with C20DA-gGlu-gGlu-gGlu-gGlu-gGlu-gGlu-eLys; C-terminal amide
B8: Compound 36 (peptide)
peptide: B4 peptide with L10Y, A18E, I23V
modifications: Aib at 2, 13, 20, 30; Lys29 epsilon-amino acylated with C18DA-gGlu-gGlu-gGlu-gGlu-gGlu-gGlu-eLys; C-terminal amide
B9: Compound 14 (peptide)
peptide: B4 peptide with L10Y, A21E, I23V
modifications: Aib at 2, 13, 20, 30; Lys29 epsilon-amino acylated with C18DA-gGlu-gGlu-gGlu-gGlu-gGlu-AHX; C-terminal amide
B10: Compound 37 (peptide)
peptide: B4 peptide with L10Y, I23L
modifications: Aib at 2, 13, 20, 30; Lys29 epsilon-amino acylated with C18DA-gGlu-gGlu-gGlu-gGlu-gGlu-gGlu-eLys; C-terminal amide
B11: Compound 81 (peptide)
peptide: B4 peptide with L10Y, E15D
modifications: Aib at 2, 13, 20, 30; Lys29 epsilon-amino acylated with C20DA-gGlu-gGlu-gGlu-gGlu-gGlu-gGlu-eLys; C-terminal amide
B12: Compound 67 (peptide)
peptide: B4 peptide with L10Y, E15D, I23V
modifications: Aib at 2, 20, 30; aMeL at 13; Lys29 epsilon-amino acylated with C18DA-gGlu-gGlu-gGlu-gGlu-gGlu-gGlu-eLys; C-terminal amide
B13: Compound 45 (peptide)
peptide: B4 peptide with L10Y, A21E, I23V, X30L
modifications: Aib at 2, 13, 20; Lys29 epsilon-amino acylated with C18DA-gGlu-gGlu-gGlu-gGlu-gGlu-AHX; C-terminal amide
B14: Compound 22 (peptide)
peptide: B4 peptide with L10Y, E15D
modifications: Aib at 2, 20, 30; aMeL at 13; Lys29 epsilon-amino acylated with C20DA-gGlu-gGlu-gGlu-gGlu-gGlu-gGlu-eLys; C-terminal amide
B15: Compound 28 (peptide)
peptide: B4 peptide with L10Y, Q17E, I23V
modifications: Aib at 2, 13, 20, 30; Lys29 epsilon-amino acylated with C20DA-gGlu-gGlu-gGlu-gGlu-gGlu-gGlu-eLys; C-terminal amide
B16: Compound 74 (peptide)
peptide: B4 peptide with L10Y, E15D, I23V
modifications: Aib at 2, 13, 20, 30; Lys29 epsilon-amino acylated with C20DA-gGlu-gGlu-gGlu-gGlu-gGlu-gGlu-eLys; C-terminal amide
B17: Compound 33 (peptide)
peptide: B4 peptide with L10Y, E15D, Q17I, I23V
modifications: Aib at 2, 13, 20, 30; Lys29 epsilon-amino acylated with C18DA-gGlu-gGlu-gGlu-gGlu-gGlu-gGlu-eLys; C-terminal amide
B18: Compound 46 (peptide)
peptide: Y[Aib]EGTFTSDYSI[Aib]LEKQAQ[Aib]AFVRHLINK([γDab-γGlu-γGlu-γGlu-γGlu-γGlu-γGlu-C20 diacid])[Aib]TRQRY-NH2
B19: Compound 51 (peptide)
peptide: Y[Aib]EGTFTSDLSI[Aib]LEKQAQ[Aib]AFVRHLINK([γGlu-γGlu-γGlu-γGlu-γGlu-γGlu-C20 diacid])[Aib]TRQRY-NH2
B20: Compound 3 (peptide)
peptide: Y[Aib]EGTFTSDYSI[Aib]LEKQAQ[Aib]AFVRHLINK([γGlu-γGlu-γGlu-γGlu-γGlu-γGlu-C20 diacid])[Aib]TRQRY-NH2

Positions count from the first letter of the chain named. *1 amine or outer side, *2 acyl side, *3 side chain or, on linkers, in order; H or OH if unused. Where no end group is shown, it is not given here. Side-chain parts run from the residue outwards. [ ]: non-standard residue; d: D form. The star is where a group is joined. C20 diacid = O=C(O)CCCCCCCCCCCCCCCCCCC(=O)*; C18 diacid = O=C(O)CCCCCCCCCCCCCCCCC(=O)*; γGlu = O=C(O)[C@H](CCC(=O)[*:2])N[*:1]; εLys = N[C@@H](CCCCN[*:1])C(=O)[*:2]; dOR = not defined here; Aib = CC(C)(N)C(=O)O

The target of the first test is human GLP-1 receptor (human, UniProt P43220 24-463). Description: cell-based or functional assay.
Turning to B1, the “EC50, CreLuc reporter, 0.5% hP” value was 1.8 nM.
Regarding B2, the “EC50, CreLuc reporter, 100% hP” value is 7.1 nM.
Regarding B3, the “EC50, CreLuc reporter, 0.5% hP” value turned out to be 0.7 nM and the “EC50, CreLuc reporter, 100% hP” value came to 1.8 nM.
B4: the “EC50, CreLuc reporter, 0.5% hP” value stood at 4.8 nM and the “EC50, CreLuc reporter, 100% hP” value was determined as 13.9 nM.
In the same order, the values of B5 are 0.6 nM and 3.3 nM.
In the same order, the values of B6 are 0.9 nM and 5 nM.
In the case of B7, the “EC50, CreLuc reporter, 100% hP” value was determined as 20.8 nM.
In the case of B8, the “EC50, CreLuc reporter, 100% hP” value came to 16.9 nM.
Turning to B9, the “EC50, CreLuc reporter, 0.5% hP” value worked out at 0.3 nM.
Consider B10, for which the “EC50, CreLuc reporter, 0.5% hP” value is 5.8 nM and the “EC50, CreLuc reporter, 100% hP” value amounted to 9.1 nM.
For B11, in that order: 0.6 nM and 3.8 nM.
For the molecule B12, the “EC50, CreLuc reporter, 0.5% hP” value is 0.1 nM and the “EC50, CreLuc reporter, 100% hP” value turned out to be 0.6 nM.
Take B13: the “EC50, CreLuc reporter, 0.5% hP” value came out at 0.5 nM.
Turning to B14, the “EC50, CreLuc reporter, 0.5% hP” value came to 0.2 nM and the “EC50, CreLuc reporter, 100% hP” value is 0.6 nM.
In the same order, the values of B15 are 8 nM and 14.8 nM.
In the same order, the values of B16 are 0.4 nM and 3.3 nM.
In the same order, the values of B17 are 0.1 nM and 1 nM.
Take B18: the “EC50, CreLuc reporter, 100% hP” value stood at 5.3 nM.
As to B19, the “EC50, CreLuc reporter, 0.5% hP” value came to 4.5 nM and the “EC50, CreLuc reporter, 100% hP” value turned out to be 16.3 nM.
In the same order, the values of B20 are 3 nM and 13.9 nM.

The target in the next test is T1, human neuropeptide Y2 receptor. Description: cell-based or functional assay.
On to B1, for which the “EC50, CreLuc reporter, 0.5% hP” value stood at 47.6 nM and the “EC50, CreLuc reporter, 100% hP” value was 140 nM.
In the case of B3, the “EC50, CreLuc reporter, 100% hP” value was 59.1 nM.
For the molecule B4, the “EC50, CreLuc reporter, 0.5% hP” value came out at 6.5 nM and the “EC50, CreLuc reporter, 100% hP” value came to 111 nM.
In the same order, the values of B5 are 150 nM and 690 nM.
For the molecule B6, the “EC50, CreLuc reporter, 0.5% hP” value was found to be 49.2 nM and the “EC50, CreLuc reporter, 100% hP” value was found to be 71.3 nM.
As to B7, the “EC50, CreLuc reporter, 100% hP” value is 69.1 nM.
In the case of B8, the “EC50, CreLuc reporter, 0.5% hP” value was determined as 30.1 nM and the “EC50, CreLuc reporter, 100% hP” value stood at 95.2 nM.
In the same order, the values of B9 are 16.8 nM and 388 nM.
For B10, in that order: 11.9 nM and 41.3 nM.
For B11, in that order: 7.2 nM and 52.4 nM.
As for B12, the “EC50, CreLuc reporter, 0.5% hP” value stood at 18.1 nM and the “EC50, CreLuc reporter, 100% hP” value came out at 112 nM.
For B13, in that order: 19.8 nM and 224 nM.
In the same order, the values of B14 are 8.8 nM and 72 nM.
In the same order, the values of B15 are 24 nM and 297 nM.
B16: the “EC50, CreLuc reporter, 0.5% hP” value amounted to 7.1 nM and the “EC50, CreLuc reporter, 100% hP” value came out at 90.6 nM.
As for B18, the “EC50, CreLuc reporter, 0.5% hP” value came to 28.4 nM and the “EC50, CreLuc reporter, 100% hP” value was 70.5 nM.
B20: the “EC50, CreLuc reporter, 0.5% hP” value amounted to 37.9 nM and the “EC50, CreLuc reporter, 100% hP” value was 147 nM.

Another test concerns the target T2, human GIP receptor. Description: cell-based or functional assay.
With B1, the “EC50, CreLuc reporter, 0.5% hP” value was determined as 0.8 nM.
In the case of B2, the “EC50, CreLuc reporter, 0.5% hP” value came to 0.4 nM and the “EC50, CreLuc reporter, 100% hP” value was determined as 19.3 nM.
For B3, in that order: 0.5 nM and 2 nM.
As to B4, the “EC50, CreLuc reporter, 0.5% hP” value turned out to be 0.2 nM and the “EC50, CreLuc reporter, 100% hP” value came out at 5.6 nM.
In the same order, the values of B5 are 0.2 nM and 3 nM.
In the same order, the values of B6 are 0.3 nM and 7.1 nM.
For B7, in that order: 0.6 nM and 16.3 nM.
Take B8: the “EC50, CreLuc reporter, 0.5% hP” value came to 8.8 nM and the “EC50, CreLuc reporter, 100% hP” value was determined as 41.4 nM.
As to B9, the “EC50, CreLuc reporter, 0.5% hP” value turned out to be 0.1 nM.
Consider B10, for which the “EC50, CreLuc reporter, 100% hP” value stood at 15.5 nM.
Take B11: the “EC50, CreLuc reporter, 0.5% hP” value is 0.5 nM.
Take B12: the “EC50, CreLuc reporter, 0.5% hP” value came out at 0.1 nM and the “EC50, CreLuc reporter, 100% hP” value amounted to 1.7 nM.
Regarding B13, the “EC50, CreLuc reporter, 0.5% hP” value came out at 0.3 nM and the “EC50, CreLuc reporter, 100% hP” value amounted to 19.6 nM.
For B14, the “EC50, CreLuc reporter, 0.5% hP” value is 0.1 nM.
As for B15, the “EC50, CreLuc reporter, 0.5% hP” value is 19.3 nM and the “EC50, CreLuc reporter, 100% hP” value worked out at 208 nM.
Regarding B16, the “EC50, CreLuc reporter, 0.5% hP” value is 0.5 nM.
Regarding B17, the “EC50, CreLuc reporter, 0.5% hP” value came to 0.7 nM and the “EC50, CreLuc reporter, 100% hP” value was found to be 18.7 nM.
In the same order, the values of B18 are 0.8 nM and 7.2 nM.
For B19, in that order: 0.5 nM and 13.8 nM.
For B20, the “EC50, CreLuc reporter, 0.5% hP” value worked out at 0.7 nM.
